Experimental data: paper PMC5500802
Each block holds one molecule with its values, some of them ahead of it.

How the values were obtained:
[1] = target: GST-ACK GBD wild type, ACK(448-489) (UniProt Q07912); assay: BLI; Octet Red; GST fusion proteins (10 μg/ml) loaded on anti-GST sensors, dipped into a dilution range of Cdc42·GMPPNP; 50 mM Tris–HCl pH 7.5, 150 mM NaCl, 1 mM MgCl2, 0.02% Tween 20, 0.1% BSA, 0.05% sodium azide, 25 °C; GST-alone sensors subtracted
[2] = target: GST-WASP (Wiskott–Aldrich syndrome protein) fusion construct; assay: as above
[3] = target: GST-WASP ΔBR (basic region mutant of WASP); assay: as above
GST-ACK GBD R481A = GST-ACK GBD R481A (UniProt Q07912); assay: scintillation proximity assay (direct binding); 20 nM GST-ACK variant immobilised on protein A SPA fluoromicrospheres via an anti-GST antibody; varying concentrations of [3H]GTP-Cdc42; background without effector subtracted; apparent Kd from a direct binding isotherm
[4] = target: GST-ACK GBD wild type, ACK(448-489) (UniProt Q07912); assay: as above
GST-ACK GBD G468A = GST-ACK GBD G468A (UniProt Q07912); assay: as above
GST-ACK GBD W476A = GST-ACK GBD W476A (UniProt Q07912); assay: as above
GST-ACK GBD L487A = GST-ACK GBD L487A (UniProt Q07912); assay: as above
GST-ACK GBD L449A = GST-ACK GBD L449A (UniProt Q07912); assay: as above
GST-ACK GBD P457A = GST-ACK GBD P457A (UniProt Q07912); assay: as above
GST-ACK GBD H467A = GST-ACK GBD H467A (UniProt Q07912); assay: as above
GST-ACK GBD F462A = GST-ACK GBD F462A (UniProt Q07912); assay: as above
GST-ACK GBD Δ17 = GST-ACK GBD Δ17 (UniProt Q07912); assay: as above
GST-ACK GBD S461A = GST-ACK GBD S461A (UniProt Q07912); assay: as above
GST-ACK GBD I463A = GST-ACK GBD I463A (UniProt Q07912); assay: as above
GST-ACK GBD S450A = GST-ACK GBD S450A (UniProt Q07912); assay: as above
GST-ACK GBD S470A = GST-ACK GBD S470A (UniProt Q07912); assay: as above
GST-ACK GBD D469A = GST-ACK GBD D469A (UniProt Q07912); assay: as above
GST-ACK GBD L485A = GST-ACK GBD L485A (UniProt Q07912); assay: as above
GST-ACK GBD A451D = GST-ACK GBD A451D (UniProt Q07912); assay: as above
GST-ACK GBD H464A = GST-ACK GBD H464A (UniProt Q07912); assay: as above
GST-ACK GBD S455A = GST-ACK GBD S455A (UniProt Q07912); assay: as above
GST-ACK GBD H464A/H467A = GST-ACK GBD H464A/H467A (UniProt Q07912); assay: as above
GST-ACK GBD Q452A = GST-ACK GBD Q452A (UniProt Q07912); assay: as above
GST-ACK GBD Q459A = GST-ACK GBD Q459A (UniProt Q07912); assay: as above
GST-ACK GBD T465A = GST-ACK GBD T465A (UniProt Q07912); assay: as above
GST-ACK GBD D480A = GST-ACK GBD D480A (UniProt Q07912); assay: as above
Cdc42 Δ7 Q61L = Cdc42 Δ7 Q61L (UniProt P60953); assay: scintillation proximity assay (competition); 30 nM GST-WT ACK GBD immobilised on protein A SPA fluoromicrospheres via an anti-GST antibody, 30 nM [3H]GTP-Cdc42; increasing concentrations of GST-cleaved ACK variant; pure competition model, apparent Kd (Ki)

Kd [1]: 130 nM
kon [1]: 224000 M⁻¹ s⁻¹
Kd [2]: 30 nM
kon [2]: 793000 M⁻¹ s⁻¹
Kd [3]: 220 nM
kon [3]: 360000 M⁻¹ s⁻¹
Kd (GST-ACK GBD R481A): 107 nM
Kd [4]: 44.2 nM
Kd (GST-ACK GBD G468A): 67.3 nM
Kd (GST-ACK GBD W476A): 137 nM
Kd (GST-ACK GBD L487A): 330 nM
Kd (GST-ACK GBD L449A): 492 nM
fold increase in Kd over WT (GST-ACK GBD P457A): > 22.6 -fold
fold increase in Kd over WT (GST-ACK GBD H467A): > 22.6 -fold
fold increase in Kd over WT (GST-ACK GBD F462A): > 22.6 -fold
fold increase in Kd over WT (GST-ACK GBD Δ17): > 22.6 -fold
fold increase in Kd over WT (GST-ACK GBD S461A): > 22.6 -fold
Kd (GST-ACK GBD I463A): 152 nM
Kd (GST-ACK GBD S450A): 167 nM
Kd (GST-ACK GBD S470A): 35.4 nM
Kd (GST-ACK GBD D469A): 38 nM
Kd (GST-ACK GBD L485A): 31.4 nM
Kd (GST-ACK GBD A451D): 189 nM
fold increase in Kd over WT (GST-ACK GBD H464A): > 22.6 -fold
Kd (GST-ACK GBD S455A): 243 nM
fold increase in Kd over WT (GST-ACK GBD H464A/H467A): > 22.6 -fold
Kd (GST-ACK GBD Q452A): 44 nM
Kd (GST-ACK GBD Q459A): 29.8 nM
Kd (GST-ACK GBD T465A): 85.4 nM
Kd (GST-ACK GBD D480A): 164 nM
Molecule: Cdc42 Δ7 Q61L (from UniProt P60953 1-191) (natural protein)

Kd (Cdc42 Δ7 Q61L): 4760 nM
Molecule: GLSAQDISQPLQNSFIHTGHGDSDP (domain or fragment) [ACK GBD Δ17, cleaved from GST]

Kd (Cdc42 Δ7 Q61L): 20 nM
Molecule: GLSAQDISQPLQNSFIHTGHGDSDPRHCWGFPDRIDELYLGN (domain or fragment) [ACK GBD wild type, ACK(448-489), cleaved from GST]

The remaining lines, values behind:

Molecule: GLSAQDIAQPLQNSFIHTGHGDSDPRHCWGFPDRIDELYLGN (domain or fragment) [ACK GBD S455A, cleaved from GST]
Kd (Cdc42 Δ7 Q61L): 750 nM

Molecule: GLSAQDISQPLQNSAIHTGHGDSDPRHCWGFPDRIDELYLGN (domain or fragment) [ACK GBD F462A, cleaved from GST]
Kd (Cdc42 Δ7 Q61L): 3460 nM

Molecule: GLSAQDISQPLQNSFIHTGAGDSDPRHCWGFPDRIDELYLGN (domain or fragment) [ACK GBD H467A, cleaved from GST]
Kd (Cdc42 Δ7 Q61L): 1790 nM

Molecule: GLSAQDISQALQNSFIHTGHGDSDPRHCWGFPDRIDELYLGN (domain or fragment) [ACK GBD P457A, cleaved from GST]
Kd (Cdc42 Δ7 Q61L): 3830 nM

Molecule: GLSAQDISQPLQNSFIATGHGDSDPRHCWGFPDRIDELYLGN (domain or fragment) [ACK GBD H464A, cleaved from GST]
Kd (Cdc42 Δ7 Q61L): 2510 nM

Molecule: GLSAQDASQPLQNSFIHTGHGDSDPRHCWGFPDRIDELYLGN (domain or fragment) [ACK GBD I454A, cleaved from GST]
Kd (Cdc42 Δ7 Q61L): 19700 nM

Molecule: GLSAQDISQPLQNAFIHTGHGDSDPRHCWGFPDRIDELYLGN (domain or fragment) [ACK GBD S461A, cleaved from GST]
Kd (Cdc42 Δ7 Q61L): 4160 nM
